Tests used:
[1] = molecular target: protease-activated receptor 2 (PAR-2) on human eosinophils / BEAS-2B airway epithelial cells (UniProt P55085)
[2] = tested on: T1, fluorescent quenched PAR-2 peptide substrate Abz-SKGRSLIGK(Dnp)D
T1 sequence: SKGRSLIGK

Sequence of protease-activated receptor 2 (PAR-2) on human eosinophils / BEAS-2B airway epithelial cells (P55085 whole entry, looked up): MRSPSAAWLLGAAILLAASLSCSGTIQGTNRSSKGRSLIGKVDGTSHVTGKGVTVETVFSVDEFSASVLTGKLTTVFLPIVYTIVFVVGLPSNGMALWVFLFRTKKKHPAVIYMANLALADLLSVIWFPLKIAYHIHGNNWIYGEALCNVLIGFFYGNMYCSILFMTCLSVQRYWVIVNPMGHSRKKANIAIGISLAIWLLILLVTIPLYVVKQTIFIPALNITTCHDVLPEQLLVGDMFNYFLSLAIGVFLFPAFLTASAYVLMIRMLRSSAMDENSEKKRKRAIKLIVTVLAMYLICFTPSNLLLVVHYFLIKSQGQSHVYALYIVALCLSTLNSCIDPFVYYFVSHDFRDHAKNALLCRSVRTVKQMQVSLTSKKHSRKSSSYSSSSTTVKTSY

| Substance | deglycosylation and downregulation of PAR-2 in eosinophils (Western blot) [1] | in vitro assay for PAR-2 cleavage and activation (fluorescent quenched peptide substrate) [2] |
| --- | --- | --- |
| Aspergillus xylanase | The 41 kDa and 70 kDa PAR-2 molecules were deglycosylated by xylanase temporarily |  |
| trypsin |  | trypsin, as positive control, clearly cleaved this peptide |
